Substitutions are numbered along the chain they refer to.
T1: 6×His tag human Pear1 extracellular segment (Leu-21-Ser; 754) (human, UniProt Q5VY43 21-754)
T1 construct: range 21-754; The ELISA and the Biacore test only say 'human Pear1 ECD protein' / 'extracellular segment'; also called human Pear1 ECD protein; human Pear1ECD protein; not shown: 6×His tag
T1 sequence (looked up): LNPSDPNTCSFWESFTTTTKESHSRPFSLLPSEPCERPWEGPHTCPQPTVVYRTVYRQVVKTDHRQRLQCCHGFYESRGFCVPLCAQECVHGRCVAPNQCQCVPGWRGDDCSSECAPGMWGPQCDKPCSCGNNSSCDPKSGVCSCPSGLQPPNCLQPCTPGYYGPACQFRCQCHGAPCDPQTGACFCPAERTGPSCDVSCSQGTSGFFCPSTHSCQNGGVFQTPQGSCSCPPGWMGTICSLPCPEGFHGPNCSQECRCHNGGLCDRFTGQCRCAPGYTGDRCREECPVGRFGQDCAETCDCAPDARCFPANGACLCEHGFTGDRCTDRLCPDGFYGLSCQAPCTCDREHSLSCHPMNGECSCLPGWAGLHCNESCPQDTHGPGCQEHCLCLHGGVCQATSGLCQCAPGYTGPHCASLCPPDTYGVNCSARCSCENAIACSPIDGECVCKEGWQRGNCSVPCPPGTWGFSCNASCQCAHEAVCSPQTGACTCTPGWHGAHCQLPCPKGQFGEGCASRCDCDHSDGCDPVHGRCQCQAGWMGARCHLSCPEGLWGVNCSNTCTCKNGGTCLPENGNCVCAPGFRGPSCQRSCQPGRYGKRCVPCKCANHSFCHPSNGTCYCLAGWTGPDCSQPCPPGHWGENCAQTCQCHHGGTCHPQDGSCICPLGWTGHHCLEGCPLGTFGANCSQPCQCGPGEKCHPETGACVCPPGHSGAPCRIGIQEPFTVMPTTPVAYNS

B1: LF2-hIgG4 (antibody, V domains shown)
VH: EVQLQQSGPELVKPGASMKISCKASGYSFTGYPMNWVRQSHVKNLEWIGVINPYNGGTSYNQKFKGKATLTVDKSSSTAYIELLSLTSDDSAVYYCARGGVRPFAYWGQGTLVTVSA
VL: DIQMTQTSSSFSVSLGDRVTITCKASEDIYNRLAWYQQKPGNAPRLLISGATSLETGVPSRFSGSGSGNDYTLSITSLQTEDVATYYCQQYWSTPTFGAGTKLELQ
notes: read from the name as the variable domains of LF2 on human IgG4 constant regions; also called LF2-hlgG 4
B2: hLF109 (antibody, V domains shown)
VH: QVQLVQSGAEVKKPGASVKVSCKASGYTFTGYPMNWVRQAPGQNLEWMGVINPYNGGTSYNQKFKGRVTLTVDKSASTAYMELSSLRSEDTAVYYCARGGVRPFAYWGQGTLVTVSS
VL: DIQMTQSPSSLSASVGDRVTITCKASEDIYNRLAWYQQKPGKAPKLLISGATSLETGVPSRFSGSGSGNDFTLTISSLQPEDFATYYCQQYWSTPTFGQGTKLEIK
notes: Humanized antibody
B3: hLF112 (antibody, V domains shown)
VH: B2 VH
VL: B2 VL with K42N, F71Y
notes: Humanized antibody
B4: hLF102 (antibody, V domains shown)
VH: B2 VH with V72R
VL: B2 VL with K42N
notes: Humanized antibody
B5: hLF106 (antibody, V domains shown)
VH: B2 VH with Q43K, N44R, V68A, K74T
VL: B2 VL with K42N
notes: Humanized antibody
B6: hLF104 (antibody, V domains shown)
VH: B2 VH with V72R
VL: B2 VL with K42N, F71Y
notes: Humanized antibody
B7: hLF110 (antibody, V domains shown)
VH: B2 VH
VL: B2 VL with K42N
notes: Humanized antibody; also called hLFHO
B8: hLF105 (antibody, V domains shown)
VH: B2 VH with Q43K, N44R, V68A, K74T
VL: B2 VL
notes: Humanized antibody
B9: hLF113 (antibody, V domains shown)
VH: B2 VH with Q43K, V68A
VL: B2 VL
notes: Humanized antibody
B10: hLF115 (antibody, V domains shown)
VH: B2 VH with Q43K, V68A
VL: B2 VL with F71Y
notes: Humanized antibody
B11: hLF103 (antibody, V domains shown)
VH: B2 VH with V72R
VL: B2 VL with F71Y
notes: Humanized antibody
B12: hLF116 (antibody, V domains shown)
VH: B2 VH with Q43K, V68A
VL: B2 VL with K42N, F71Y
notes: Humanized antibody
B13: hLF101 (antibody, V domains shown)
VH: B2 VH with V72R
VL: B2 VL
notes: Humanized antibody (CDR grafting with back mutations)
B14: hLF114 (antibody, V domains shown)
VH: B2 VH with Q43K, V68A
VL: B2 VL with K42N
notes: Humanized antibody
B15: hLF111 (antibody, V domains shown)
VH: B2 VH
VL: B2 VL with F71Y
notes: Humanized antibody
B16: hLF107 (antibody, V domains shown)
VH: B2 VH with Q43K, N44R, V68A, K74T
VL: B2 VL with F71Y
notes: Humanized antibody
B17: hLF108 (antibody, V domains shown)
VH: B2 VH with Q43K, N44R, V68A, K74T
VL: B2 VL with K42N, F71Y
notes: Humanized antibody
B18: LF15 (antibody, V domains shown)
VH: EVQLQQSGPELVKPGASMKISCKASGYSFTGYTMNWVKQSHGENLEWIGVINPYNGGTSYNQKFKGKATLTVDKSFSTAYMEILSLTSEDSAVYYCSRGGGNSWFAYWGQGTLVTVSA
VL: DIQMTQTSSYLSVSLGGRVTITCKASDHINNWLAWYQQKPGNAPRLLISGATSLETGVPSRFSGSGSGTDYSLTITSLQTEDVATYYCQQYWSIPTFGGGTRLEIK
notes: Mouse monoclonal antibody from hybridoma
B19: LF2 (antibody, V domains shown)
VH: B1 VH
VL: B1 VL
notes: as for B18
B20: LF7 (antibody, V domains shown)
VH: B1 VH with V42G, P53S, T58A, S77N, T78I, A79V, Y80H, I81M, D89E
VL: DIVMTQSQKFMSTSVGDRVSVTCKASQNVDTNVAWYQQKPGQSPKALIYSASYRYSGVPDRFTGSGSGTDFTLTISNVQSEDLAEYFCQQYDSYPYTFGGGTKLEIR
notes: as for B18
B21: LF16 (antibody, V domains shown)
VH: EVQLQQSGPELVKPGASMKISCKASGYAFTGYTMNWVKQSHGKNLDWIGVINGYNGGTSYNQKFKGKATLTVDKSSSTAYMELLSLTSEDSAIYYCARGGPTTGFVYWGQGTLVTVSA
VL: B1 VL with N69K, Q106K
notes: as for B18
B22: LF11 (antibody, V domains shown)
VH: B1 VH with R38K, S40T, V42G, V50L, I81M, D90E, A105D, Y106F
VL: DIVITQSPAIMSASPGEKVTMTCSARSSVSYMYWYQQKPGSSPRLLIYDTSKLASGVPVRFSGSGSGTSYSLTISRMEAEDAATYFCQQWSSYPPTFGGGTKLEIK
notes: as for B18
B23: LF3 (antibody, V domains shown)
VH: B1 VH with R38K, S40T, V42G, V50L, I81M, D90E, A105D, Y106F
VL: B1 VL
notes: as for B18

What follows are binders tested against T1, 6×His tag human Pear1 extracellular … (assay: SPR (Biacore); antibody as ligand, Pear1 extracellular segment).

Row | Kd [nM] | koff [s⁻¹] | kon [M⁻¹ s⁻¹] | t1/2 [min] | Binder
1 | 3.52 | 0.000187 | 53100 | 61.8 | B1
2 | 6.14 | 0.000249 | 40500 | 46.4 | B2
3 | 4.99 | 0.000237 | 47500 | 48.7 | B3
4 | 7.87 | 0.000395 | 50200 | 29.2 | B4
5 | 5.8 | 0.000233 | 40100 | 49.7 | B5
6 | 13.3 | 0.000506 | 38000 | 22.8 | B6
7 | 5.42 | 0.000236 | 43500 | 49 | B7
8 | 3.82 | 0.000176 | 46200 | 65.6 | B8
9 | 4.28 | 0.000201 | 47000 | 57.4 | B9
10 | 5.31 | 0.000235 | 44200 | 49.2 | B10
11 | 19 | 0.000532 | 28000 | 21.7 | B11
12 | 5.09 | 0.000221 | 43400 | 52.3 | B12
13 | 7.67 | 0.000393 | 51200 | 29.4 | B13
14 | 5.09 | 0.000232 | 45600 | 49.8 | B14
15 | 6.87 | 0.000271 | 39500 | 42.6 | B15
16 | 6.74 | 0.000345 | 51200 | 33.5 | B16
17 | 5.98 | 0.000307 | 51300 | 37.7 | B17

What follows are binders tested against T1, 6×His tag human Pear1 extracellular … (assay: ELISA, plate coated with human Pear1 ECD).
Method: FIG. 6 The comparison of the affinities of the anti-human Pear1 antibodies to human Pear1. The ELISA plate was coated with human Pear1 ECD proteins and the reactions were conducted between antibodies at different concentrations (2000 ng/mL, 1000 ng/mL, 500 ng/mL, 250 ng/mL, 125 ng/mL, 62.5 ng/mL, 31.25 ng/mL, 15.625 ng/mL, 7.8125 ng/mL, 3.90625 ng/mL, 1.953125 ng/mL, 0.9765625 ng/mL) and the human Pear1 ECD proteins. OD value was measured to obtain the EC 50 value of the antigen-antibody combination
8.2.1 Comparison of antigen binding ability of these antibodies.

Row | EC50 [µg/mL] | Binder
18 | 0.0807 | B18
19 | 0.0111 | B19
20 | 0.0336 | B20
21 | 0.0547 | B21
22 | 0.00891 | B22
23 | 0.00927 | B23
